In patent US20250170238A1 (LANIER BIOTHERAPEUTICS, published 2025):

Assays:
[1] = molecular target: T1, mouse IL-25 (made from mouse (NSO) source) (mouse, UniProt Q8VHH8 17-169); test: binding affinity, method not stated; mouse IL-25 made in NSO
T1 sequence (looked up): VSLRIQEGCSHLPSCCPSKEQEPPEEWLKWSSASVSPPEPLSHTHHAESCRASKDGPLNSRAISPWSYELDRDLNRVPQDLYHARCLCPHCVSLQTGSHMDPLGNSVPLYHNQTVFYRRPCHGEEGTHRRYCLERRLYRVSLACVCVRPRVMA

[2] = molecular target: T1, mouse IL-25 (made from mouse (NSO) …); test: cell-based or functional assay
[3] = molecular target: T2, Human IL-25 (made from human (HEK) sources) (human, UniProt Q9H293 33-177); test: cell-based or functional assay
T2 sequence (looked up): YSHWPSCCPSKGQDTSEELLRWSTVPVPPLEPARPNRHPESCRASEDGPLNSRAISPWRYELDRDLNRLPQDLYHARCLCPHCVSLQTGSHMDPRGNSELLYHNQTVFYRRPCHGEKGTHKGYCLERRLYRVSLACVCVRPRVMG

Cyno Monkey IL-25 (HEK) = molecular target: T3, Cyno Monkey IL-25 (HEK) (cynomolgus monkey, UniProt G7P9V9 33-176); test: binding affinity, method not stated; cyno monkey IL-25 made in HEK
T3 construct: also called Cyno Monkey (HEK)
T3 sequence: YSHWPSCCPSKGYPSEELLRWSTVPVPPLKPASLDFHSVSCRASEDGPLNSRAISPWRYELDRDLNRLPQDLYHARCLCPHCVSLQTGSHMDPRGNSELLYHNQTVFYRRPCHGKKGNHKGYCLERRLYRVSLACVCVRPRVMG

[4] = molecular target: T2, Human IL-25 (made from human (HEK) …); test: binding affinity, method not stated; human IL-25 made in HEK

B1: humanized anti-IL-25 antibody LNR125.38 (antibody, V domains shown)
VH: QVTLKESGPTLVKPTQTLTLTCTFSGFSLSTSGMGVGWIRQPPGKALEWLAHIWWDDVKRYNPSLKSRLTITKDTSGSQVVLTMTNMDPVDTATYYCARTLPHFHDYWGQGTTLTVSS
VL: DIQMTQSPSTLSASVGDRVTITCRASSSVSYMYWYQQKPGKAPKPLIYRTSNLASGVPSRFSGSGSGTEYTLTISSLQPDDFATYYCKQYHSYPPTWTFGGGTKVEIKR
- Kd [1]: 96 pM
- Potency IC50 in HT29 cell assay [2]: 780 µg/mL
- Potency IC50 in HT29 cell assay [3]: 100 µg/mL
- Kd (Cyno Monkey IL-25 (HEK)): 235 pM
- Kd [4]: 51 pM

B2: anti-IL-25 antibody LNR125 (antibody, V domains shown)
VH: QVTLKVSGPGILQPSQTLSLTCSFSGFSLNTSGMGVGWIRQPSGKGLEWLAHIWWDDVKRYNPALKSRLTISKDTSGSQVFLKIASVDTADTATYYCARTLPHFFDYWGQGTTLTVSS
VL: DIQMTQSPAIMSASPGEKVTISCRASSSVSYMYWYQQKSGSSPKPWIYRTSNLASGVPARFSGSGSGTSYSLTISSMEAEDAATYYCKQYHSYPPTWTFGGGTKLEIKR
- Kd [1]: 168 pM
- Potency IC50 in HT29 cell assay [2]: 130 µg/mL
- Potency IC50 in HT29 cell assay [3]: 120 µg/mL
- Kd (Cyno Monkey IL-25 (HEK)): 170 pM
- Kd [4]: 128 pM
